Data taken from patent US20030157685A1 (GENERAL HOSPITAL CORPORATION A MASSACHUSETTS, published 2003).

Tests used:
[1] = target: T1, LexA-C-myc bait (carboxy-terminal 176 amino acids of human C-myc) (human, UniProt P0A7C2 1-202; P01106 279-454); assay: yeast two-hybrid
T1 construct: also called Lex-C-myc

[2] = target: T2, LexA-N-myc bait (carboxyl-terminal 224 amino acids of human N-myc) (human, UniProt P0A7C2 1-202; P04198 241-464); assay: yeast two-hybrid
T2 construct: also called PL-LexA-N-myc
T2 sequence (looked up): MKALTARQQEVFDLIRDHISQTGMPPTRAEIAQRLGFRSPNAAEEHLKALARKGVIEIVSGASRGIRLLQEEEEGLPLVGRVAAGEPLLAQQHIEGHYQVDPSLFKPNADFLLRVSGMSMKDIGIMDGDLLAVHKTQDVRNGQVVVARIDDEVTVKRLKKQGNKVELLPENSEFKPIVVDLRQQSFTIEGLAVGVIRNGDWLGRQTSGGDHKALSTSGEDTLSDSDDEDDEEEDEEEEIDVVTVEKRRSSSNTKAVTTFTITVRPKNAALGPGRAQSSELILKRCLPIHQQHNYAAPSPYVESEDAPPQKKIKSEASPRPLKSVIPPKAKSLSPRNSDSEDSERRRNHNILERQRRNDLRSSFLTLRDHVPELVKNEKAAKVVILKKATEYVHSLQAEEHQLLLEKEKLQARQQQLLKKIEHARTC

B1: full length Nmi fused in-frame with the transcriptional activator B42 in JG4-5 vector (other, not shown: small tags and cut ends)
chain: MEADKDDTQQILKEHSPDEFIKDEQNKGLIDEITKKNIQLKKEIQKLETELQEATKEFQIKEDIPETKMKFLSVETPENDSQLSNISCSFQVSSKVPYEIQKGQALITFEKEEVAQNVVSMSKHHVQIKDVNLEVTAKPVPLNSGVRFQVYVEVSKMKINVTEIPDTLREDQMRDKLELSFSKFRNGGGEVDRVDYDRQSGSAVITFVEIGVADKILKKKEYPLYINQTCHRVTVSPYTEIHLKKYQIFSGTSKRTVLLTGMEGIQMDEEIVEDLINIHFQRAKNGGGEVDVVKCSLGQPHIAYFEE
notes: Yeast two-hybrid prey; the 307 amino acid protein is meant
binding result [1]: binds | binding result [2]: binds
